Laboratory results published in PMC13218722.

Columns and labels:
[1] = target: LFA-1 αI-Fc fusion protein (human) (UniProt P20701); assay: BLI; LFA-1 αI immobilised on AR2G (amine reactive) sensor at 100 ng; PfGBP-130-N as analyte at increasing concentrations; 1× PBS pH 7.4; 25°C; 800 s; 1:1 binding model; Octet K2; n≥3
[2] = target: LFA-1 (CD11a/CD18) on THP-1 cells and primary human NK cells (human (endogenous in THP-1 and primary NK cells)) (UniProt P20701)
[3] = target: LFA-1 (CD11a/CD18) on THP-1 cells and primary human NK cells (human (endogenous in THP-1 and primary NK cells)) (UniProt P20701); assay: flow cytometry on cells; THP-1 cells, with or without CD11a siRNA, fixed, incubated with 250 nM GBP130-Fc or 250 nM hIgG control in FACS buffer 2 hr; PE-Texas Red anti-human secondary antibody

Chain of LFA-1 (CD11a/CD18) on THP-1 cells and primary human NK cells (human (endogenous in THP-1 and primary NK cells)) (P20701 26-1170, chain 1 of 2): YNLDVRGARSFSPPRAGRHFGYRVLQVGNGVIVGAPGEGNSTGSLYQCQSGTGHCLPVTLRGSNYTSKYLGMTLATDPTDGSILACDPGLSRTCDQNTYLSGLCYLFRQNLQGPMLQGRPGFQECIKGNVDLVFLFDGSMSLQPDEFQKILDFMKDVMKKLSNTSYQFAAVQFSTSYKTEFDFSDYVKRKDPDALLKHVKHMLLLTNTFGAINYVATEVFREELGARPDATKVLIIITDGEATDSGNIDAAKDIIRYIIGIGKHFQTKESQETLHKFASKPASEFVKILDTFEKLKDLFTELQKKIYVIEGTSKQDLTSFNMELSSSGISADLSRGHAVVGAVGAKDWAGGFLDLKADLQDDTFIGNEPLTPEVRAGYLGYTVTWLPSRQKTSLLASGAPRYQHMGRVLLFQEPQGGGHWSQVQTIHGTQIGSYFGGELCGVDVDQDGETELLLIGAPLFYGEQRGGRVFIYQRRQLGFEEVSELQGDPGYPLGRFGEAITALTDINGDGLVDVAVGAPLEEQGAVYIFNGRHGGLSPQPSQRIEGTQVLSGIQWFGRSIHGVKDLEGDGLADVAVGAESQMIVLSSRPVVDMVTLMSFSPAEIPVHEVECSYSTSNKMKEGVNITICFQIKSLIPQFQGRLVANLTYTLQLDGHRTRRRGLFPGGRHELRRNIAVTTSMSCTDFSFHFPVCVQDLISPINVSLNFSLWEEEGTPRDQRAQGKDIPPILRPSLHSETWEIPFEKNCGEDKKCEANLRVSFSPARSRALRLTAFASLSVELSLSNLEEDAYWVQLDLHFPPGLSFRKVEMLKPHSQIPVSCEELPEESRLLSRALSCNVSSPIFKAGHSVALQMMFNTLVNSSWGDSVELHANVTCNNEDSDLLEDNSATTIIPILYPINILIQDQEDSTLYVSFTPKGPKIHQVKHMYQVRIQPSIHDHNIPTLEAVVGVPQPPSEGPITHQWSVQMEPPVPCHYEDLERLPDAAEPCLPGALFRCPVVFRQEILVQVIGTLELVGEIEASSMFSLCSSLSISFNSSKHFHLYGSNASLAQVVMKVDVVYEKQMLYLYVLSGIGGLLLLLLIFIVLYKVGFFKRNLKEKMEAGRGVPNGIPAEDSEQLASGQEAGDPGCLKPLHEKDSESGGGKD
Chain of LFA-1 (CD11a/CD18) on THP-1 cells and primary human NK cells (human (endogenous in THP-1 and primary NK cells)) (P05107 23-769, chain 2 of 2, further chain): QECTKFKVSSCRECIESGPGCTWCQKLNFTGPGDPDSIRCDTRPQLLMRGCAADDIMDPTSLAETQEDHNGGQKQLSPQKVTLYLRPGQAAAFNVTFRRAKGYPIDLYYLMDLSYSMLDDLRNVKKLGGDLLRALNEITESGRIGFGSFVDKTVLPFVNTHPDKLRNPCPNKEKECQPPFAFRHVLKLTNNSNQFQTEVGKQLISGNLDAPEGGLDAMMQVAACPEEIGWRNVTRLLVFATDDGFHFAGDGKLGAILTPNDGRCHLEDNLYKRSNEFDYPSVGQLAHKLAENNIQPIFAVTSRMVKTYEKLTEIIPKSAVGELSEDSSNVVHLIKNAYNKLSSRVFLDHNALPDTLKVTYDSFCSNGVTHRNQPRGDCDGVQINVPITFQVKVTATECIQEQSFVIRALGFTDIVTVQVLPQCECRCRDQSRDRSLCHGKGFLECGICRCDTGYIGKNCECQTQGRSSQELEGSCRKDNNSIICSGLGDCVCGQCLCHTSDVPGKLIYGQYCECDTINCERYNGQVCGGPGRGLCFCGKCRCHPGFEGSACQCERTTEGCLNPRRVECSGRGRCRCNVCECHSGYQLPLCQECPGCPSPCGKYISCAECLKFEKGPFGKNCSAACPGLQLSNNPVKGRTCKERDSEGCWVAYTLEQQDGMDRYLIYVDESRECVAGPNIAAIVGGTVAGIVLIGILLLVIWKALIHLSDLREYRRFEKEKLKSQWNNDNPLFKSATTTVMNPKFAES
Chain of PfGBP-130-N (N-terminal fragment of PfGBP-130, aa 69-270) (domain or fragment) (Q8I6U8 69-270): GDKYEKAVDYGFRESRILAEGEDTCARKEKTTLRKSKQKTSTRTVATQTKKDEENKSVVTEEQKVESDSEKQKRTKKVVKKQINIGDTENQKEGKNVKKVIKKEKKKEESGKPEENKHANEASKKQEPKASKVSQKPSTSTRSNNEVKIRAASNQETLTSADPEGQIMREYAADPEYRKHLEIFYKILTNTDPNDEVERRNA
Chain of LFA-1 αI-Fc fusion protein (human) (P20701 153-335): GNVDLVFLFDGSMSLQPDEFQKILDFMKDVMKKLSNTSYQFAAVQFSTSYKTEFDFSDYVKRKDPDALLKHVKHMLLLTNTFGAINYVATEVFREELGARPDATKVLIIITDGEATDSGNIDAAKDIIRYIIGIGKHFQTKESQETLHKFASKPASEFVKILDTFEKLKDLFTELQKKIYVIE

## PfGBP-130-N (N-terminal fragment of PfGBP-130, aa 69-270) (domain or fragment)
[1]
  Kd: 17 nM

## PfGBP-130 extracellular domain fused to the transmembrane domain of transferrin receptor (TfR-TM), on CHO K1 cells
[2]
  CD25 expression on primary human NK cells co-cultured 24 hr with CHO-PfGBP-ECD (2:1, Poly I:C/Lipofectamine 2000) compared to mock CHO cells, flow cytometry; reduced by anti-CD11a (HI111): 40%
  CD69 expression on primary human NK cells co-cultured 24 hr with CHO-PfGBP-ECD (2:1, Poly I:C/Lipofectamine 2000) compared to mock CHO cells, flow cytometry; reduced by anti-CD11a (HI111): 50%

## PfGBP-130 ECD-Fc (extracellular domain of PfGBP-130 fused to the Fc region of human IgG1) (Fc fusion)
[3]
  fold increase in binding over hIgG isotype control (THP-1 cells): 3 fold
